Measurements taken from paper PMC12208556, “Thrombospondin-1 inhibits alternative complement pathway activation in antineutrophil cytoplasmic antibody-associated vasculitis” (The Journal of Clinical Investigation, 2025).

Columns and labels:
Conditions in all cases: both partners purified
complement factor H (FH) = target: T1, complement factor H (FH) (UniProt P08603 19-1231); experiment: SPR; BIAcore 3000; TSP-1 bound covalently to CM5 chips at 0.1 μM; complement proteins flowed at 12.3, 37.03, 111.1, 333.3, 1,000 nM in PBS plus 0.05% Tween 20; 1:1 Langmuir binding model; average of 3 measurements
T1 construct: Complement factor H, obtained from Complement Technologies; source: bought: Complement Technologies

complement C3 = target: T2, complement C3 (UniProt P01024 23-667; P01024 672-1663); experiment: as above
T2 construct: Complement C3 beta chain (75 kDa), cut from the C3 precursor; Complement C3 alpha chain (110 kDa), cut from the C3 precursor; source: bought: Complement Technologies
T2 sequence (P01024 23-667, chain 1 of 2): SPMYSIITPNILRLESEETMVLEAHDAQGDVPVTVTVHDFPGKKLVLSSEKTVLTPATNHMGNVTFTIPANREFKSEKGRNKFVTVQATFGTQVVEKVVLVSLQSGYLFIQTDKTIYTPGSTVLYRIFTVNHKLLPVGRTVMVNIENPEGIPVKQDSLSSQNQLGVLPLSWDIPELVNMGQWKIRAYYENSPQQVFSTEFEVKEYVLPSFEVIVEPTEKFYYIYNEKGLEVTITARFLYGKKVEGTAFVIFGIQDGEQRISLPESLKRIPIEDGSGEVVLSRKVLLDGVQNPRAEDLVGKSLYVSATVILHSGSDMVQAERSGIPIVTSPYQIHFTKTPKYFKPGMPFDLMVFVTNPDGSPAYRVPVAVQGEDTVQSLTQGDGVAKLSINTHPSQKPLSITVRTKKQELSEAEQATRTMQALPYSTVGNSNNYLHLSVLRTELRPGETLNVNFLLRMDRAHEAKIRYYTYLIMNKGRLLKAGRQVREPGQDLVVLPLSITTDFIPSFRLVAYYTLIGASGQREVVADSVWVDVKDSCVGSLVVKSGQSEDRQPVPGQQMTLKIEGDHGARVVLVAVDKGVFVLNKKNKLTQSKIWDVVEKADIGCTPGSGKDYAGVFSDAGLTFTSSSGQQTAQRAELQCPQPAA
T2 sequence (P01024 672-1663, chain 2 of 2): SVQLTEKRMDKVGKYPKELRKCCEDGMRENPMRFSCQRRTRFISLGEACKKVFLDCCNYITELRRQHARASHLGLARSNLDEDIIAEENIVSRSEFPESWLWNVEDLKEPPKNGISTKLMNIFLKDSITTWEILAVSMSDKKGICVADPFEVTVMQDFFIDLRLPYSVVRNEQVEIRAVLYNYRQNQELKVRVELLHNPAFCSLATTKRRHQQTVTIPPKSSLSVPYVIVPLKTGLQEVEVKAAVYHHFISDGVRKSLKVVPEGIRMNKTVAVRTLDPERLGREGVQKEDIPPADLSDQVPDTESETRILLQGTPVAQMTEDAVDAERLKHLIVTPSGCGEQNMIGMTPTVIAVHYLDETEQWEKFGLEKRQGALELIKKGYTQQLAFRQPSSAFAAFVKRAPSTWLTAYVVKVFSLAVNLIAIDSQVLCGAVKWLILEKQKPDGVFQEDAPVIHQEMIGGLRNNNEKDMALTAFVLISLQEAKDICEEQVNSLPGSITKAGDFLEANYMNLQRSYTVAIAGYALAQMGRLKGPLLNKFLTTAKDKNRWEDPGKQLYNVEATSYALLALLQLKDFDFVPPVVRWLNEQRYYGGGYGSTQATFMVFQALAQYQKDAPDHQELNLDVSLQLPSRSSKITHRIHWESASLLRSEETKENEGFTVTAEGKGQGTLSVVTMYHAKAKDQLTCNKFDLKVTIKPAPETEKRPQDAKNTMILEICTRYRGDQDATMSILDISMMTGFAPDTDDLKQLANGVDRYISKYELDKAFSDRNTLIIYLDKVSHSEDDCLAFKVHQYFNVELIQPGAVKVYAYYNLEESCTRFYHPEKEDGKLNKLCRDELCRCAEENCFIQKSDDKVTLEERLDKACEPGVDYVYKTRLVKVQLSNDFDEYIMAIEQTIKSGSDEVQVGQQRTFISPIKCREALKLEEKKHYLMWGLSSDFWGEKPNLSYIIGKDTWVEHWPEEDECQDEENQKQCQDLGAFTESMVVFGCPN

complement C5 = target: T3, complement C5 (UniProt P01031 19-673; P01031 678-1676); experiment: as above
T3 construct: Complement C5 beta chain; Complement C5 alpha chain; source: bought: Complement Technologies
T3 sequence (P01031 19-673, chain 1 of 2): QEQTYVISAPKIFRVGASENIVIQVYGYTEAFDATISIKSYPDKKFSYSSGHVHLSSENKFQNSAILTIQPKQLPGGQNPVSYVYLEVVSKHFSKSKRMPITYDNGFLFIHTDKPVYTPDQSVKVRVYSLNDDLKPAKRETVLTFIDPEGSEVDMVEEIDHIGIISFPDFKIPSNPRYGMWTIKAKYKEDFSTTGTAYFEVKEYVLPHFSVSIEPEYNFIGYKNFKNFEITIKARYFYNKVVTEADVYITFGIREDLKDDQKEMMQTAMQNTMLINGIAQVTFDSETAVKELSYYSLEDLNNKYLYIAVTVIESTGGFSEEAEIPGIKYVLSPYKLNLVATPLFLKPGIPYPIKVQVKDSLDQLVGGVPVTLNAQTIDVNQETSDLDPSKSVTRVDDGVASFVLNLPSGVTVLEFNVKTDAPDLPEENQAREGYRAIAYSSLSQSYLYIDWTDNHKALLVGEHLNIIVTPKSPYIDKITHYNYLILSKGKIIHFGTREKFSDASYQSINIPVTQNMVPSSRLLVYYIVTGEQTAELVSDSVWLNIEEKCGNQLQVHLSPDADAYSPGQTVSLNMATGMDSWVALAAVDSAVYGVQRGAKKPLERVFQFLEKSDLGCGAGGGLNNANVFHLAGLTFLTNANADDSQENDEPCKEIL
T3 sequence (P01031 678-1676, chain 2 of 2): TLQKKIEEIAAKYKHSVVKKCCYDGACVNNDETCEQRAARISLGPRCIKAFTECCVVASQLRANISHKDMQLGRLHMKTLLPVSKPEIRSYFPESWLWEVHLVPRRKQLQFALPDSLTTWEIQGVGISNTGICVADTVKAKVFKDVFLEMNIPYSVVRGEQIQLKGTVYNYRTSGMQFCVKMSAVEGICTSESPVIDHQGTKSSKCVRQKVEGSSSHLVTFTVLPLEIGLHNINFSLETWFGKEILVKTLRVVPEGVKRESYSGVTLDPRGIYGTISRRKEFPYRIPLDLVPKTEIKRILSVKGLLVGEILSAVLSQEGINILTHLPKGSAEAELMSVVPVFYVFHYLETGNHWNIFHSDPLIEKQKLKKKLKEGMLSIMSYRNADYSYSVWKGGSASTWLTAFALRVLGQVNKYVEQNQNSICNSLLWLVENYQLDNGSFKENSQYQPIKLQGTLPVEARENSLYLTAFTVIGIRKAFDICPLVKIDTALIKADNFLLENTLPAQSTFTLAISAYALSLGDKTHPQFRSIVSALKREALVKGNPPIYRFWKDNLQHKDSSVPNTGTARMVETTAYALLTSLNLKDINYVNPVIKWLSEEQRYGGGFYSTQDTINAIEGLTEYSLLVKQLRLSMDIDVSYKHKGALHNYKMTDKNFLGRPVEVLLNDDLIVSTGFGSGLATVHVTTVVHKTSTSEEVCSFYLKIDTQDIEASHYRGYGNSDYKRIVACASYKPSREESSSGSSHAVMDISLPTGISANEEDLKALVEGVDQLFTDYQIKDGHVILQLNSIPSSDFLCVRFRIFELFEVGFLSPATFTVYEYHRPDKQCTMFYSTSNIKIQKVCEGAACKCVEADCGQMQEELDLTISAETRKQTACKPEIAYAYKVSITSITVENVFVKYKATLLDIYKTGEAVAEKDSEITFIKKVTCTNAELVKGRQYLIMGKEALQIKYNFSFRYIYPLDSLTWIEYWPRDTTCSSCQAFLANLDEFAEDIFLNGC

complement C8 [1] = target: T4, complement C8 (UniProt P07357 31-584; P07358 55-591; P07360 21-202); experiment: as above
T4 construct: Complement component C8 alpha chain; Complement component C8 beta chain; Complement component C8 gamma chain; source: bought: Complement Technologies; copies: + +
T4 sequence (P07357 31-584, chain 1 of 3): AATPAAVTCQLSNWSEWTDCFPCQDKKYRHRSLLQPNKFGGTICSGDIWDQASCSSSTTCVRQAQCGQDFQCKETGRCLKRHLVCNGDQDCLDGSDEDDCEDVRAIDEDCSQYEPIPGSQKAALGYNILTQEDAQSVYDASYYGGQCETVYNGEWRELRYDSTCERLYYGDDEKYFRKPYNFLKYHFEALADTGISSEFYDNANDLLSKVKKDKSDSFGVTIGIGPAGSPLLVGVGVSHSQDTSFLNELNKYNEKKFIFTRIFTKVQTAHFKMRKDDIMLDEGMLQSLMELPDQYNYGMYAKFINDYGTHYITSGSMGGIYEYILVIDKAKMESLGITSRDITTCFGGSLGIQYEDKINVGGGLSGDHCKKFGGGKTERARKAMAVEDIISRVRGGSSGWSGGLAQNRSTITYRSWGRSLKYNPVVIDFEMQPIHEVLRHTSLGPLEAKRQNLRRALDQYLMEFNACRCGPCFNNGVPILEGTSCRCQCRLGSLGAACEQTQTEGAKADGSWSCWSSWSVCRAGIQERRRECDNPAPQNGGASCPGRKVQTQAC
T4 sequence (P07358 55-591, chain 2 of 3): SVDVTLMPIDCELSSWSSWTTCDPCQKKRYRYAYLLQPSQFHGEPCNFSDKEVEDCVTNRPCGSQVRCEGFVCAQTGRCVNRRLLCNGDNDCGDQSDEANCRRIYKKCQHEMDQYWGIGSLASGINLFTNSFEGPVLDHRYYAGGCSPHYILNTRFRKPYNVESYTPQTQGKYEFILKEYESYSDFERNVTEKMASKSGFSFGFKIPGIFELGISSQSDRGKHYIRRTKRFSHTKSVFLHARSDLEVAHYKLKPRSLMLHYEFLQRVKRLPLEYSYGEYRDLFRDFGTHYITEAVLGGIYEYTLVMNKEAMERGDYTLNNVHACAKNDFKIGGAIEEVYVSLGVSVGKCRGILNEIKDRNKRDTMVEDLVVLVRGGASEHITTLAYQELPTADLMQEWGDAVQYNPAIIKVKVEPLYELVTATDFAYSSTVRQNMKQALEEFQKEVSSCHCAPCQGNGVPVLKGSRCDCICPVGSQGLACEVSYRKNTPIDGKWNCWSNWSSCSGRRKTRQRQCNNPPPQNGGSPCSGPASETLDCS
T4 sequence (P07360 21-202, chain 3 of 3): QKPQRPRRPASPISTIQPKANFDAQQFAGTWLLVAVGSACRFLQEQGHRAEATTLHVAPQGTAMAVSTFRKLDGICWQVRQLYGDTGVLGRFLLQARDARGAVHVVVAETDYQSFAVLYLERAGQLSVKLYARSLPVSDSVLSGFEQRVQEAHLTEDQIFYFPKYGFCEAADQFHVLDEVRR

complement factor H = target: T5, complement factor H (UniProt P08603 19-1231); experiment: SPR; BIAcore 3000; TSP-1 bound covalently to CM5 chips at 0.1 uM; complement proteins as analytes at 12.3, 37.03, 111.1, 333.3, 1,000 nM in PBS plus 0.05% Tween 20; 1:1 Langmuir binding model; average of 3 repeated measurements
T5 construct: Complement factor H; also called FH; source: bought: Complement Technologies

complement C8 [2] = target: T6, complement C8 (UniProt P07357 31-584; P07358 55-591; P07360 21-202); experiment: as above
T6 construct: source: bought: Complement Technologies; copies: + +
T6 sequence (P07357 31-584, chain 1 of 3): as the sequence (P07357 31-584, chain 1 of 3) above
T6 sequence (P07358 55-591, chain 2 of 3): as the sequence (P07358 55-591, chain 2 of 3) above
T6 sequence (P07360 21-202, chain 3 of 3): as the sequence (P07360 21-202, chain 3 of 3) above

B1: recombinant full-length thrombospondin-1 (TSP-1) (natural protein)
chain: not shown
notes: Thrombospondin-1, human cDNA (Sinobiological HG10508-UT) subcloned into pFastbac1 with a gp67 signal peptide for secretion and an N-terminal 10xHis tag; called recombinant full-length TSP-1; Secreted through a gp67 signal peptide; also called recombinant TSP-1; source: Spodoptera frugiperda 9 cells (baculovirus), purified from cell supernatants via Ni-NTA columns; not shown: 10xHis, N-terminal, …
Kd (complement factor H (FH)): 203 nM | Kd (complement C3): 127 nM | Kd (complement C5): 47 nM | Kd (complement C8 [1]): 311 nM

B2: recombinant full-length thrombospondin-1 (natural protein)
chain: not shown
notes: Thrombospondin-1, human cDNA from Sinobiological (HG10508-UT), subcloned into pFastbac1 behind a gp67 signal peptide for secretion; The gp67 signal peptide stands in place of or before the native one; also called TSP-1; source: Spodoptera frugiperda 9 cells (baculovirus), purified from cell supernatants via Ni-NTA columns; not shown: 10xHis, N-terminal, kept
Kd (complement factor H): 203 nM | Kd (complement C8 [2]): 310 nM
